Biological target: T1, TTP-2D (tristetraprolin, both CCCH zinc fingers) (UniProt P22893)
T1 sequence: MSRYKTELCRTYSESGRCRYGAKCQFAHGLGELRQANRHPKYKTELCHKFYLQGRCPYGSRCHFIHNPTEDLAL
Assay: fluorescence anisotropy

UUUAUUUAUUU (ssRNA) [UUUAUUUAUUU-F (AU-rich element)]
binding result: binds

— PMC5688852
